Assay results taken from PMC8930183, “Structure of the Pf12 and Pf41 heterodimeric complex of Plasmodium falciparum 6-cysteine proteins” (FEMS Microbes, 2022).
Numbering of substitutions follows the chain as printed.

T1: Pf41 D1D2 (residues 21-368), untagged (Plasmodium falciparum, UniProt Q8I1Y0 21-368)
T1 construct: Pf41, Plasmodium falciparum 6-cysteine protein, residues K21-S368 (D1 with the inserted-domain-like region ID, and D2); lacks the signal peptide and ten C-terminal residues; After TEV cleavage three residues, GAS, remain at the N-terminus as cloning artefacts; N-glycosylation sites kept; treated with PNGase F before crystallisation; also called Pf41 wildtype; source: Spodoptera frugiperda 21 …
T1 sequence (looked up): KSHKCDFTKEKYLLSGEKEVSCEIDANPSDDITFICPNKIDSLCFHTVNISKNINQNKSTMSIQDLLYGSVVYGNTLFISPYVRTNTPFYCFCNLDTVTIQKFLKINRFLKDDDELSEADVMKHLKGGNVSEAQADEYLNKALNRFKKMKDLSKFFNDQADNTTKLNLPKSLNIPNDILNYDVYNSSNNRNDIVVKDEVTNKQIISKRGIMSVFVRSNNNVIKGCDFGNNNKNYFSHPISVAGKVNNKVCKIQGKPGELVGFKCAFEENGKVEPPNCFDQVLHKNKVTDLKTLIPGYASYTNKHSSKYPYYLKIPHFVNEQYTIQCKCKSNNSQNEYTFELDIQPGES

T2: Pf41 D1D2 F166L (Plasmodium falciparum, UniProt Q8I1Y0 21-368, F166 L)
T2 construct: Pf41, Plasmodium falciparum, residues K21-S368 (D1D2); source: Spodoptera frugiperda 21 cells, purified (Ni-IMAC, TEV cleavage, SEC); not shown: His8, N-terminal, cleaved
T2 sequence: T1 sequence (looked up) with F146L

T3: Pf41 D1D2 H336A (Plasmodium falciparum, UniProt Q8I1Y0 21-368, H336 to alanine)
T3 construct: Pf41, Plasmodium falciparum, residues K21-S368 (D1D2); source: Spodoptera frugiperda 21 cells, purified (Ni-IMAC, TEV cleavage, SEC); not shown: His8, N-terminal, cleaved
T3 sequence: T1 sequence (looked up) with H316A

T4: Pf41 D1D2 N339A (Plasmodium falciparum, UniProt Q8I1Y0 21-368, N339A)
T4 construct: Pf41, Plasmodium falciparum, residues K21-S368 (D1D2); source: Spodoptera frugiperda 21 cells, purified (Ni-IMAC, TEV cleavage, SEC); not shown: His8, N-terminal, cleaved
T4 sequence: T1 sequence (looked up) with N319A

T5: Pf41 D1D2 E340A (Plasmodium falciparum, UniProt Q8I1Y0 21-368, E340A)
T5 construct: Pf41, Plasmodium falciparum, residues K21-S368 (D1D2); source: Spodoptera frugiperda 21 cells, purified (Ni-IMAC, TEV cleavage, SEC); not shown: His8, N-terminal, cleaved
T5 sequence: T1 sequence (looked up) with E320A

T6: Pf41 D1D2 E367A (Plasmodium falciparum, UniProt Q8I1Y0 21-368, E367A)
T6 construct: Pf41, Plasmodium falciparum, residues K21-S368 (D1D2); source: Spodoptera frugiperda 21 cells, purified (Ni-IMAC, TEV cleavage, SEC); not shown: His8, N-terminal, cleaved
T6 sequence: T1 sequence (looked up) with E347A

B1: octa-histidine tagged Pf12 D1D2 (residues 28-304) (domain or fragment)
chain: NLTCDFNDVYKLEFHPNQQTSVTKLCNLTPNVLEKVTIKCGSDKLNYNLYPPTCFEEVYASRNMMHLKKIKEFVIGSSMFMRRSLTPNKINEVSFRIPPNMMPEKPIYCFCENKKTITINGSNGNPSSKKDIINRGIVEIIIPSLNEKVKGCDFTTSESTIFSKGYSINEISNKSSNNQQDIVCTVKAHANDLIGFKCPSNYSVEPHDCFVSAFNLSGKNENLENKLKLTNIIMDHYNNTFYSRLPSLISDNWKFFCVCSKDNEKKLVFTVEASISS
notes: Pf12, Plasmodium falciparum 6-cysteine protein, residues N28-S304 (domains D1 and D2); TEV-cleavable tag left on; loaded on NTA sensors; also called tagged wildtype Pf12; source: Spodoptera frugiperda 21 cells, secreted into growth media, purified as tagged protein (Ni-IMAC, SEC); not shown: His8, N-terminal, kept
B2: nanobody H2 (VHH)
VHH: QVQLQESGGGSVQAGGSLRLSCTTSRRTRNTHAMGWFRQAPGKEREFVAAISWIDSSTYYADSVKGRFTMSGGNARNTVYLQMNSLEPEDTAVYYCAAGSVVAGFWEEVGYDYWGQGTQVTVSS
notes: alpaca, immunised with Pf12-Pf41 complex; Pf12-specific (D1 domain); source: E. coli WK6, periplasmic extract, purified (HisTrap, SEC)

Key:
Conditions in all cases: both partners purified
[1] = molecular target: T1, Pf41 D1D2 (residues 21-368), untagged; test: BLI; Octet RED96e; octa-histidine tagged Pf12 loaded on NTA sensors; untagged Pf41 wildtype or mutant 31-1000 nM; PBS pH 7.4, 0.1% BSA, 0.05% TWEEN-20, 25°C; read-out relative maximum response against wildtype
Pf41 D1D2 F166L = molecular target: T2, Pf41 D1D2 F166L; test: as above
Pf41 D1D2 H336A = molecular target: T3, Pf41 D1D2 H336A; test: as above
Pf41 D1D2 N339A = molecular target: T4, Pf41 D1D2 N339A; test: as above
Pf41 D1D2 E340A = molecular target: T5, Pf41 D1D2 E340A; test: as above
Pf41 D1D2 E367A = molecular target: T6, Pf41 D1D2 E367A; test: as above
[2] = molecular target: T7, Pf12 D1D2 (residues 28-304), untagged (Plasmodium falciparum, UniProt C6KSX0); test: BLI; Octet RED96e; nanobodies loaded on NTA sensors; untagged Pf12 or Pf41 (6-200 nM) or their domains in solution; PBS pH 7.4, 0.1% BSA, 0.05% TWEEN-20, 25°C; global 1:1 fit
T7 construct: Pf12, Plasmodium falciparum 6-cysteine protein, residues N28-S304 (domains D1 and D2); lacks the signal peptide and the GPI-anchor site; After TEV cleavage three residues, GAS, remain at the N-terminus as cloning artefacts; N-glycosylation sites kept; treated with PNGase F before crystallisation; also called Pf12 wildtype; source: Spodoptera frugiperda 21 cells, secreted into growth media, …

[3] = molecular target: T8, Pf41 D1D2 (residues 21-368), untagged (Plasmodium falciparum, UniProt Q8I1Y0); test: as above
T8 construct: Pf41, Plasmodium falciparum 6-cysteine protein, residues K21-S368 (D1 with the inserted-domain-like region ID, and D2); lacks the signal peptide and ten C-terminal residues; After TEV cleavage three residues, GAS, remain at the N-terminus as cloning artefacts; N-glycosylation sites kept; treated with PNGase F before crystallisation; also called Pf41 wildtype; source: Spodoptera frugiperda 21 …

[4] = molecular target: T9, Pf12 D1 (residues N28-L172) (Plasmodium falciparum, UniProt C6KSX0); test: as above
T9 construct: Pf12, Plasmodium falciparum, N-terminal 6-cys domain D1, residues N28-L172; also called Pf12 D1 domain; source: Spodoptera frugiperda 21 cells, purified by the same protocol as Pf12 D1D2; not shown: His8, N-terminal, cleaved

[5] = molecular target: T10, Pf12 D2 (residues E174-S304) (Plasmodium falciparum, UniProt C6KSX0); test: as above
T10 construct: Pf12, Plasmodium falciparum, C-terminal 6-cys domain D2, residues E174-S304; also called Pf12 D2 domain; source: Spodoptera frugiperda 21 cells, purified by the same protocol as Pf12 D1D2; not shown: His8, N-terminal, cleaved

Row | Binder | binding result [1] | binding result (Pf41 D1D2 F166L) | binding result (Pf41 D1D2 H336A) | binding result (Pf41 D1D2 N339A) | binding result (Pf41 D1D2 E340A) | binding result (Pf41 D1D2 E367A) | binding result [2] | binding result [3] | binding result [4] | binding result [5]
1 | B1 | binds | binds | binds | binds | binds | binds | – | – | – | –
2 | B2 | – | – | – | – | – | – | binds | no binding | binds | no binding
